Data on three molecules can be found in patent US7645871B2, “Tumor inhibition by modulating sprouty expression of activity” (Michigan State University, priority 2005, dated 2010).

Data set [1] deals with PH3MT cells. As to the kind of experiment: AG1478 inhibitor study, cell growth in 0.1% serum. The format is cell-based, human. On the procedure: For AG1478 inhibitor studies, cells were plated at a density of 5,000 cells per 60 mm-diameter dish in medium containing 0.1% serum, and were allowed to grow in the presence or absence of AG1478 at a concentration of 6 μM. Cell growth was monitored by measuring the number of cells every two days. Each experimental repetition included at least two replicates for each cell strain analyzed.
The activation of Ras oncogenes enables cellular growth in the absence of exogenous growth factors (Medema et al. (1993) Crit. Rev. Oncog. 4; Shields et al. (2000) Trends Cell. Biol. 10: 147-154). To determine if the activity of EGFR is necessary for the growth factor independence of H-Ras-transformed cells, measurements were made to determine the ability of PH3MT cells to grow in the presence of the AG1478 inhibitor, a specific inhibitor of EGFR tyrosine kinase activity (Levitzki et al. (1995) Science 267:1782-1788).

Data set [2] has as its system HRas-transformed cells (PH3MT). As to the kind of experiment: UV-induced apoptosis assay (AnnexinV-FITC, flow cytometry). The data set is classed as cell-based, human. As to conditions: Ras-transformed cells treated with AG1478. On the procedure: Apoptosis was detected by staining the cells with AnnexinV-FITC (BD Biosciences, San Jose, Calif.) according to manufacturer's recommendations. Briefly, cells were plated at a density of 2×10^5 cells/60 mm-dish. 16 hours after plating, the cells were irradiated with UV at a dose of 30-60 J/m^2 and incubated at 37° C. under normal culture conditions for varying time periods. Subsequently, the cells were collected, washed twice with AnnexinV binding buffer and incubated with AnnexinV-FITC at room temperature for 15 mins. The cells were also stained with propidium iodide (PI) to distinguish between live and dead cells. AnnexinV-FITC positive cells were determined by flow cytometry under standard conditions. Cells that stained positively for AnnexinV were considered apoptotic, while cells that were positive for both annexinV and PI were not considered apoptotic. All experiments were repeated at least three times. Ras protects NIH3T3 fibroblasts from apoptosis induced by DNA-damage (Franke et al. (2003) Oncogene 22:8983-98). Experiments were conducted to determine whether this effect was produced in an H-Ras-transformed cell strain (PH3MT), which has a higher expression of Spry2 compared to its parental cell strain (MSU-1.1) (FIG. 10A). In these experiments, both MSU-1.1 and PH3MT cells were plated at a density of 2×10^5 cells per dish and allowed to grow overnight. […]
Background: Flow cytometry measures light scatter and fluorescence of single cells or particles in a stream.

Data set [3] concerns PH3MT cells. As to the kind of experiment: Tumorigenicity assay in athymic mice. As to conditions: one million cells per site s.c., at least 6 months. The format is in vivo. On the procedure: Cells were assayed for their ability to form tumors in athymic mice as described in Lou et al. (2005) Cancer Res. 65:1007-1017. The mice were examined weekly for tumor growth, and the tumors were removed when they reached 1 cm in diameter. In the absence of tumor formation six months after the injection, the mice were sacrificed.
When these same cell strains were compared for their ability to form tumors in athymic mice (Table 1), the control cell strains (PH3MT-VC and PH3MT-SC) formed 0.5 cm^3 tumors in 21 days (12/12 tumors formed per cell strain).

Data set [4] concerns Rac1. In words: Rac1 activation assay (PAK-CRIB pull-down). The format is cell-based, human. Conditions: PH3MT-SC (endogenous Spry2) vs PH3MT-2A3. On the procedure:
Pull-down assays were performed using whole cell lysates (2 mg). The lysates were pulled down with PAK-Cdc42/Rac1 interacting region (CRIB)-conjugated beads from Cytoskeleton (Denver, Colo.) using methods provided by the manufacturer. […] These experiments were repeated 3 times in H-Ras-transformed cells and twice in immortalized fibroblasts.
To determine whether Spry2 plays a role in the activation of Rac1, a Rac1 activation assay was carried out to determine the level of activated Rac1 in control HRas-transformed cells (PH3MT-SC) and in HRas-transformed cells with down regulated Spry2 (PH3MT-2A3).

The subject of data set [5] is MDM2. As to the kind of experiment: MDM2 level and Ser166 phosphorylation, Western blot. Conditions: PH3MT-2A3 vs PH3MT-SC. The data set is classed as cell-based, human. As for the experimental part: (§1) Whole cell lysates were prepared as described in Lou et al. ((2005) Cancer Res. 65:1007-1017). Protein concentration was quantified with Coomasie protein reagent from Pierce (Rockford, Ill.). Whole cell lysates (50 μg) were separated by SDS-PAGE. The electrophoresed proteins were transferred to a polyvinylidene fluoride membrane (Millipore, Billerca, Mass.), and immunoblotted using standard techniques. Antibodies against pp 85, p85, c-Cbl, Mdm2, p53 and H-Ras were purchased form Santa Cruz (Santa Cruz, Calif.); Spry2 from Calbiochem (San Diego, Calif.); pAkt and Akt from Cell Signaling (Danver, Mass.) and Ku80 from Serotec (Raleigh, N.C.). Ku80 protein was used as a loading control. Label signals were detected with the SuperSignal reagent (Pierce, Rockford, Ill.).
(§2) The MDM2/p53 pathway plays a critical role in UV-induced apoptosis (Lakin et al. (1999) Oncogene 18(53):7644-7655). Akt phosphorylates MDM2 on serine residue 166, resulting in the stabilization of MDM2 (Ogawara et al. (2002) J. Biol. Chem., 277(24):21843-21850). This enhances the ubiquitination of p53 by MDM2, which is followed by degradation of the p53. […] To test this proposal, the amount of MDM2 phosphorylated at Ser166 was determined in a cell strain with down regulated Spry2 (PH3MT-2A3) and in a control cell strain (PH3MT-SC). […]
For orientation: In western blotting, separated proteins are transferred to a membrane and probed.

Data set [6] has as its system HRas/c-Cbl. As to the kind of experiment: Co-immunoprecipitation of c-Cbl with HRas. The format is cell-based, human. Conditions: PH3MT-2A3 vs control cells, anti-HRas immunoprecipitation. As for the experimental part:
Generally, in experiments employing immunoprecipitation, whole cell lysates (250 μg) were precleared with an appropriate IgG antibody for 30 mins., then incubated with an antibody specific to HRas for 2 hrs., followed by incubation with protein-G for 1 hr. to overnight at 4° C. When an Hras-agarose conjugate was used (Ras-cCbl/CIN85), the lysates were incubated with the agarose conjugate for 3 hrs. to overnight. The immunoprecipitated fraction was washed several times with lysis buffer and assayed by Western blotting. Experiments were generally conducted in replicate, e.g., experiments were repeated 3 to 4 times for those examining Ras-Spry2 and Ras-c-Cbl interactions, and two times for those examining the Ras-CIN85 interaction.

Data set [7] deals with ERK. In words: EGF-induced activation of ERK (pERK Western blot). The data set is classed as cell-based, human. Conditions: serum starved, EGF 100 ng/ml; vs scrambled RNAi strain PH3MT-SC. As for the experimental part:
Whole cell lysates were prepared as described in Lou et al. (2005) Cancer Res. 65:1007-1017. The protein content was quantified with Coomassie protein reagent from Pierce (Rockford, Ill.). Whole cell lysate (50 μg) was separated by SDS-PAGE. The protein was transferred to polyvinylidene fluoride membrane (Millipore, Billerica, Mass.), and immunoblotting was carried out using standard techniques. The signal was detected with the SuperSignal® reagent (Pierce). Antibodies against EGFR, ERK, pERK, c-Cbl, and H-Ras were purchased from Santa Cruz Biotechnology, Inc. (Santa Cruz, Calif.); Sprouty2 from Calbiochem (San Diego, Calif.); Pan-Ras from Cytoskeleton, Inc. (Denver, Colo.) and Ku80 from Serotec (Raleigh, N.C.). The Ku80 protein expression was used as a loading control.
To determine if the expression of Sprouty2 in PH3MT cells was associated with an increase in the activation of the RAS/MAPK cascade, EGF-induced activation of ERK was examined by Western blotting with a phosphorylation-specific antibody.

Data set [8] deals with p53. In words: p53 level, Western blot. The data set is classed as cell-based, human. As to conditions: PH3MT-2A3 vs PH3MT-SC. On the procedure: as §1, §2
Data set [9] relates to PH3MT cells. As to the kind of experiment: Stress fiber staining (phalloidin). The format is cell-based, human. Conditions: PH3MT-2A3 vs PH3MT-SC. On the procedure: Stress fibers were detected with Alexa-fluor 488 conjugated phalloidin stain from Invitrogen (Carlsbad, Calif.), which was used according to the manufacturer's instructions. Briefly, cells at log phase were fixed in 10% normal buffered formalin solution for 10 mins. The fixed cells were washed twice in phosphate buffered saline (PBS), and then treated with 0.1 Triton X-100 in PBS for 3-5 mins. at room temperature. Subsequently, the cells were incubated with blocking solution (1% BSA in PBS) for 20 mins. at room temperature. Finally, the cells were incubated with phalloidin stain for 30 mins. and analyzed by fluorescent microscopy.
One function of Rac1 is to inhibit stress fiber formation (Burridge et al. (2004) Cell 116(2): 167-179). […] This is consistent with the lower level of Rac1 activation in these cells (FIG. 12B). Accordingly, one assay that can be used to analyze the effects of a compound that affects Spry2 expression or activity is to assay stress fiber formation in the presence and absence or a compound in a cell that can express Rac1.

As to `COc1cc2ncnc(Nc3cccc(Cl)c3)c2cc1OC` [AG1478], the “ability of cells to grow in medium with reduced serum” value in data set [1] (PH3MT cells, 0.1% serum, AG1478 6 μM) is given as “decrease in the ability of H-Ras-transformed cells to grow in medium with reduced serum”. For the same molecule, the “decrease in growth compared with effect on MSU-1.1 cells” value in data set [1] (PH3MT vs MSU-1.1, AG1478 6 μM, p<0.001) is “significantly greater than the corresponding effect of the same inhibitor on the MSU-1.1 cells”. The “number of cells undergoing apoptosis in response to UV radiation” value in data set [2] is on record as “increased the number of Ras-transformed cells undergoing apoptosis”.

B1: Spry2-shRNA-5: Sprouty2-specific shRNA construct targeting position 492 of the Spry2 coding region; PH3MT-5A3 cell strain was derived with it (nucleic acid)
chain: GATCCCCGCCACTGAGCAAGGAAGATTTCAAGAGAATCTTCCTTGCTCAGTGGCTTTTTGGAAA
On to B1, for which the “Tumor incidence (ratio of tumors formed to sites injected)” value in [3] (cell strain PH3MT-5A3 (derived with Spry2-shRNA-5)) is reported as 0/12.

B2: Spry2-shRNA-2: Sprouty2-specific shRNA construct targeting position 399 of the Spry2 coding region; PH3MT-2A3 and PH3MT-2B9 cell strains were derived with it (nucleic acid)
chain: GATCCCCGAGACTGCTAGGATCATCCTTCAAGAGAGGAGTGATCCTAGCAGCTCTTTTTGGAAA
Turning to B2, the “level of active Rac1” value in data set [4] is listed as “significantly higher level of active Rac1, compared to cell strain with down-regulated Spry2 expression”. In addition, the “Tumor incidence (ratio of tumors formed to sites injected)” value in data set [3] (cell strain PH3MT-2A3 (derived with Spry2-shRNA-2)) and in data set [3] (cell strain PH3MT-2B9 (derived with Spry2-shRNA-2)) was 0/12 each time. In addition, the “level of MDM2 following UV treatment” value in data set [5] is reported as “decrease in the level of MDM2 following UV treatment”. Also, the “binding of endogenous c-Cbl to HRas” value in data set [6] is listed as “abolished”. Besides, the “EGF-induced ERK activation” value in data set [7] is “decreased levels of ERK activation”. For the same molecule, the “level of p53 following UV treatment” value in data set [8] was “higher”. Also, in data set [9], the stress fiber formation result was “more pronounced stress fibers”.
